{"source": "paper PMC10765961", "about": "(2024)", "binders": {"B1": {"name": "Claudin-1 (protein)", "chain": "MANAGLQLLGFILAFLGWIGAIVSTALPQWRIYSYAGDNIVTAQAMYEGLWMSCVSQSTGQIQCKVFDSLLNLSSTLQATRALMVVGILLGVIAIFVATVGMKCMKCLEDDEVQKMRMAVIGGAIFLLAGLAILVATAWYGNRIVQEFYDPMTPVNARYEFGQALFTGWAAASLCLLGGALLCCSCPRKTTSYPTPRPYPKPAPSSGKDYV", "modifications": "Cy3-labeled CLDN1"}}, "test_in_all_cases": "microscale thermophoresis", "key": {"[1]": {"molecular_target": "T1, EPHA2ΔN intracellular region (Homo sapiens, UniProt P29317)", "T1 chain": "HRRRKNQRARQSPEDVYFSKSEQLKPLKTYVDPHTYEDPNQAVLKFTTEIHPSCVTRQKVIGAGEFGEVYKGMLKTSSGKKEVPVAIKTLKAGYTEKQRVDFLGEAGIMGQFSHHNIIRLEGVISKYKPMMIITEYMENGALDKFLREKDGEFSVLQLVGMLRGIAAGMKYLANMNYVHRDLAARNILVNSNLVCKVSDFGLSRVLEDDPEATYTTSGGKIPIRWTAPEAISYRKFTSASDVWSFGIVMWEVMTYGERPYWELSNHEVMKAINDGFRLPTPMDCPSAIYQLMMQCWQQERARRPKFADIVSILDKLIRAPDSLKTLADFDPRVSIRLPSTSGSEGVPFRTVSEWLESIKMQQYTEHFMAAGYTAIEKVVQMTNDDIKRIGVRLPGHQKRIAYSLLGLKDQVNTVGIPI"}, "EPHA2ΔC ECD": {"molecular_target": "EPHA2ΔC ECD (Homo sapiens, UniProt P29317)", "sequence (P29317 24-537, stated change not applied)": "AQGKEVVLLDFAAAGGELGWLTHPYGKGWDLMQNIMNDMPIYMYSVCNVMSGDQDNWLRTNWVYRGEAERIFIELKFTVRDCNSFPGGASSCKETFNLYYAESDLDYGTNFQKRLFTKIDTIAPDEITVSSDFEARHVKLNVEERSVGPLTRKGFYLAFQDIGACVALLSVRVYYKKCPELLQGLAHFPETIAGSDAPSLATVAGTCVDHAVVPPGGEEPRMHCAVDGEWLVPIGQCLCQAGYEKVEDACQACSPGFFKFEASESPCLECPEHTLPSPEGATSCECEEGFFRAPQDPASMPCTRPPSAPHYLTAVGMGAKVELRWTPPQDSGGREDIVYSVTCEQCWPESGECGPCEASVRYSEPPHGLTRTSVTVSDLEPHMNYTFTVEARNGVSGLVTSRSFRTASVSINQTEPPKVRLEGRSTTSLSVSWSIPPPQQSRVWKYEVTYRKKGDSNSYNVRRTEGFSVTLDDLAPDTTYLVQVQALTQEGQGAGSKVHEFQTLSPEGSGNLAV"}, "EPHA2": {"molecular_target": "EPHA2 (Homo sapiens, UniProt P29317)"}}}
{"binder": "B1", "values": [{"measurement": "Kd", "setting": "[1]", "value": 125, "unit": "nM"}, {"measurement": "Kd", "setting": "EPHA2ΔC ECD", "value": 582, "unit": "nM"}, {"measurement": "Kd", "setting": "EPHA2", "value": 150, "unit": "nM"}]}
